Test results as given in the DeepSol protein solubility set.

Assay: soluble on expression in E. coli; label from the status in PepcDB or PDB records

Row | Sequence | soluble on expression in E. coli
1 | MSCQGPVCTNLGLKPGQRLTVKGIIAPNAKSFVMNLGKDSTHLGLHFNPRFDAHGDVNLIVCNSKKMEEWGTEQRETVFPFQKGAPIEITFSINPSDLTVHLPGHQFSFPNRLGLSVFDYFDTHGDFTLRSVSWE | soluble
2 | MAKGASISGFPEWLPSERVVEQRVIDTLRNVFELNGFIGIETRAVEQGSSLLKKGETSKEIYLLSRLQEVGHESDTPIEDRLGLHFDLTVPLSRYVVEHSGDLAFPFKRWQIQKVWRGERPQEGRFREFVQADIDVIGNGDLPDHYEVELPLVMVSALERLREFGLPKATVHANNRKLSEGFYRGLGLTDIEGVLREIDKLDKIGADEVAKLLVEGCGADEAQARACLELAELTAADGKELSDKFDALCAKHDIASDSDAYVLARQGLDTLAMIVDEAARIRPGSVIADLKIARGLDYYTGSVYETFLDGAAALGSICSGGRYDNLASQGNKKYPGVGLSIGLSRLVSYMLHTAGAHANRVSPASVLVAVWNEADRSASNLIANQLRSRGIAADVAPTAAKLGKQIKYADKLGIPYVWFPADASEEGAQDEVKNIITGDQRPADAQSWEPDTVYAQQTVTVEA | soluble
3 | KKMAFTLADRVTEEMLADKAALVVEVVEENYHDAPIVGIAVVNEHGRFFLRPETALADPQFVAWLGDETKKKSMFDSKRAAVALKWKGIELCGVSFDLLLAAYLLDPAQGVDDVAAAAKMKQYEAVRPDEAVYGKGAKRAVPDEPVLAEHLVRKAAAIWELERPFLDELRRNEQDRLLVELEQPLSSILAEMEFAGVKVDTKRLEQMGKELAEQLGTVEQRIYELAGQEFNINSPKQLGVILFEKLQLPVLKKTKTGYSTSADVLEKLAPYHEIVENILHYRQLGKLQSTYIEGLLKVVRPATKKVHTIFNQALTQTGRLSSTEPNLQNIPIRLEEGRKIRQAFVPSESDWLIFAADYSQIELRVLAHIAEDDNLMEAFRRDLDIHTKTAMDIFQVSEDEVTPNMRRQAKAVNYGIVYGISDYGLAQNLNISRKEAAEFIERYFESFPGVKRYMENIVQEAKQKGYVTTLLHRRRYLPDITSRNFNVRSFAERMAMNTPIQGSAADIIKKAMIDLNARLKEERLQAHLLLQVHDELILEAPKEEMERLCRLVPEVMEQAVTLRVPLKVDYHYGSTWYDAK | soluble
4 | SAPGWLKEMRGEHIPETEEYGISSFSFLARRPFHPEKFYHFLHDTEKFGKLIRSKGYFWLATRPQFSGQWNQAGGIAHYGFAAMFWKSVPKKDWPIDEESLNAIEKQWVEPFGDMRQELVFIGQQLDQGAMTNALNECLL | not soluble
5 | MGSDKIHHHHHHMAFFGYKDIDKLSGVDLAIYRFIVEHDEQIPYMRVRELARGAHVSNSSVMRFIRKIGYDSFPEFKVSLRSETPIQKPDAPGIQFVQPSAFPADITKIIRLAAQLMVNADNIVFVGIGASAALGEYASRQTSSLGFNSYVVKDPFYPLLPQLRNTSNNVLVAVSVSGQTSELVEMLNDFVNNPEVNIISITSNLESTIARMSRYALTYRATEERIHQYYDLTSQVPCLYIIEALLRELRHQEVVQHRFE | not soluble
6 | MGSDKIHHHHHHMRPAPSIVEVVAAIIIGSDGSFLLARRPEGKPYAGYWEFPGGKVNPEESLLRALKRELLEELGIHVKHAYPWITRTFTYPHARVRLHFYRVVEWHGEPHPHEDQELSWQFADNVSVEPLLPANAPVLRALALPPVYGITNAAEWGPQIAAARIGHALQKGLRLVQLREKGMRSKALDAFAREVTALAHHYGARILVNSGTGNESLCQELDMDGIHFTSADLMNLSKRPDVEWCAASCHNAEELFRAEQLEMDFAVLAPVLPTLSHPDSPVLGWRKLARIIHGSAIPVYALGGLQSEDLAIAWEHGAHGIALMRRIEQVRGTGQKA | not soluble
7 | MPPLECDVLVIGSGASGLAAAVTAAHHGLTVVVAEKASQLGGTSAWSGGWLWIPRNPLAIAEGIVEADDAPERYLRAQTHTRELDPRQRAFLRHGPEMVAFFEQHTAVQFQCGSRMPDMREGDGSARGGRSLCALPYDGRRLGPWLHKLRPPLDIVSLAGMGIAGGADMAAFFNATRSPKAALHVGKRLLRHGRDLLLHRRGLHLVNGNALVARLLRSALDRGVTLLTEKAASRLLLCEERVNGALFADGQAIYARRGVVLACGGFPHDRQRISQLMPHAPDGDQHYSAAPRENSGDGLRLGEQAGGRVSAAGAHGGAWAPVSQVPRRNGHFGHFPHLIDRAKPGFIAVRRDGRRFVNEADCYHDFMNALFAATPQAEQPEAWLICDHAAQRRYGIGWAKPFPFPTRFYQRSGYLHSGATLAQLAQRCGIDAEQLQRTVEGFNHHAAQGEDPTFLRGASAYNRAQGDPQQVPNPSLRPLLKGPFHAVKLLPGSLGTFAGLDTDASARVLDHAGQPIPGLFAVGNDMHSVMGGYYPSGGITLGPGMTFGYLAGRALSAGCADHLEHHHHHH | not soluble
8 | SLRKVGLTALEWLKQHPEIKQHKESSLYEQLFASQQWQQAQTIGMIRSLPLELSTQPIFERAMQESKQVAVPRTFKGGKMHFYQVFPETVYDTSAFGVEEPPLTAAEITATAIDLLIVPGIVFNRAGYRIGFGGGFYDRYLEHFSGHSCSLVFSEQLHEQWQPEAFDQPIEQLFIQ | soluble
9 | ESSRSAMMYIQELRSGLRDMHLLSCLESLRVSLNNNPVSWVQTFGAEGLASLLDILKRLHDEKEETSGNYDSRNQHEIIRCLKAFMNNKFGIKTMLETEEGILLLVRAMDPAVPNMMIDAAKLLSALCILPQPEDMNERVLEAMTERAEMDEVERFQPLLDGLKSGTSIALKVGCLQLINALITPAEELDFRVHIRSELMRLGLHQVLQELREIENEDMKVQLCVFDEQGDEDFFDLKGRLDDIRMEMDDFGEVFQIILNTVKDSKAEPHFLSILQHLLLVRNDYEARPQYYKLIEECVSQIVLHKNGTDPDFKCRHLQIDIERLVDQMIDKTKVEKSEAKATELEKKLDSELTARHELQVEMKKMENDFEQKLQDLQGEKDALDS | soluble
10 | AHHHHHHGSPRWGRGRRRKMRMIEFIPYARHFYPALPRFGPPKPPIIMTYEEFEALRLVDYEGLTQEEAGKRMGVSRGTIWRALTSARKKVAQMLVEGRELIILPQGNEVIKSDEE | not soluble
11 | MGSDKIHHHHHHMKITTVGLDIAKSVFHFVGVNKAGKLVKKKMIKRKDLLHFLAQIEPCLVVMEACGGANYWAREFEKVGHQVKLIAPQYVVPYRQGNKNDYNDALAIAEAAQRPNMRFVQPKPAEQQDIQMLHRMRERLSKQSTALVNQVRGMLAEYGIVITKGKASFRSKLPDILENADNELTAKGRSIFYQLYEEFNGIEERLKRCDNQVQQETKNNHVCQRLESVPGIGPVTATAFYAAVGEGKDFTNGRHFSAWCGLVPKQHSSGGKDNLLGISKRGNAYLRTLFIHGARAVLYHSDGKGDRFSRWAIALAERRGFNRACVAVANKLARIAWVIAAREDEYRMAV | not soluble
12 | MLPKSSLKETQQALANAIRLGNADPLNGYAASRLAVYTRLVRNNAFGFIDRCFVEAPLHIEPEYWKNAKENFVQNGNAHSPYFQDIAGEFLLFCQEKEIFDTNILALMDFENTQLLAEVSLAKVPEKFEWNRHSVMQLSGAAYLKSYDVDFLSSDFKQFDDTPIQAIIWRDSDFRIQQQILSELDYWLLSYLQEQPNSLENVLSALNTMVEDSTSIIPLLEQVWMKWVTSEVIYPEQR | not soluble
13 | MSLSMSTIAKVAARAGVSPTTVSHVINHSDRVSKPLRERVEAAIKDLGYKPNPQAQSLRTGRTNIVAMLIPDIRNPFYPELVKAAQSELEVAGLDMLIFNTDVPGGQSQDHGREYLRQIGNKRVDGLIVGDFALHGMHDALMRVETPTVFIGNLPNHAVDCVRIDDFGGGYQMGAYLAGKGHRRIAHVTGPSFFAEAMSRADGFEQGLADHGATPDPGLRFEGSYLAPSGKAAAEWLLAGHGGDLPSAVFFGNYLMAAGALAEFYDRGIRIPDDFKVAVFGDQPQLEYVRPRLTRVGNAPAELARRATRMLLERINGTYEGEPRSEVVSCVLREFETEGHHHHHH | soluble
14 | MAHHHHHHMTITLDSFNEQKVHNNQNKRKYNCRLNFKRFTKRRNNYNEDNRDSKINIKTALIKNEVISDDNDEFIDSNLMRTCHRFRLYKHSSNKIDIYYPYDKKKLDKYDYERDQTFCSLTDIEDVVNNGDDKSSKFFYYKNKSLNDYKSCFEKKNKKTKWFRLRKKKKKDHAMDESLKYLNESVCSNYKEANKNNKLDNSSKYSKNCVINTTVNGIRGFSAWIF | not soluble
15 | SMLSRAKPAVGGESPHTDKRKKKGRKIPKLEDLLSQRDFTGAITLLEFKRHVGEQEDDTNLWIGYCAFHLGDYKRALEEYENATKEENCNPEVWVNLACTYFFLGMYKQAEAAGFKAPKSRLQNRLLFHLAHKFNDEKKLMNFHQNLQDIKEDQLSLASNSEIHLPLPPECWD | soluble
